# Laboratory results from patent EP4782541A1 (Nanjing Probio Biotech Co., Ltd., dated 2026).
# B1: BsAb-17 (bispecific antibody, human IgG1, lambda)
# chain: EVQLVESGGGLVQPGGSLRLSCAASGRSFSSFQMGWFRQAPGKEREFVAASGWSGGPTYYWDSVIGRFTISTDNSKNTLYLQMNSLRAEDTAVYYCYEDRVLSGRHVRYWGQGTLVTVSSDKTHTCPPCPAPESTRGPSVFLFPPKPKDTLMISRTPEVTCVVVDVSHEDPEVKFNWYVDGVEVHNAKTKPREEQYNSTYRVVSVLTVLHQDWLNGKEYKCKVSNKALPAPIEKTISKAKGQPREPQVCTLPPSRDELTKNQVSLSCAVKGFYPSDIAVEWESNGQPENNYKTTPPVLDSDGSFFLVSKLTVDKSRWQQGNVFSCSVMHEALHNHYTQKSLSLSPGK
# heavy: EVQLVESGGGLVQPGGSLRLSCAASGRSFSSFQMGWFRQAPGKEREFVAASGWSGGPTYYWDSVIGRFTISTDNSKNTLYLQMNSLRAEDTAVYYCYEDRVLSGRHVRYWGQGTLVTVSSGGGGSGGGGSGGGGSEVQLVESGGGLVQPGRSLRLSCAASGFTFNTYAMNWVRQAPGKGLEWVARIRSKYNNYATYYADSVKDRFTISRDDSKSIAYLQMNSLKTEDTAVYYCVRHGNFGNSYVSWFAYWGQGTLVTVSSASTKGPSVFPLAPSSKSTSGGTAALGCLVKDYFPEPVTVSWNSGALTSGVHTFPAVLQSSGLYSLSSVVTVPSSSLGTQTYICNVNHKPSNTKVDKKVEPKSCDKTHTCPPCPAPESTRGPSVFLFPPKPKDTLMISRTPEVTCVVVDVSHEDPEVKFNWYVDGVEVHNAKTKPREEQYNSTYRVVSVLTVLHQDWLNGKEYKCKVSNKALPAPIEKTISKAKGQPREPQVYTLPPCRDELTKNQVSLWCLVKGFYPSDIAVEWESNGQPENNYKTTPPVLDSDGSFFLYSKLTVDKSRWQQGNVFSCSVMHEALHNHYTQKSLSLSPGK
# light: QTVVTQEPSLTVSPGGTVTLTCRSSTGAVTTSNYANWVQQKPGQAPRGLIGGTNKRAPGVPARFSGSLLGGKAALTLSGVQPEDEAEYFCALWYSNLWVFGGGTKLTVLGQPKAAPSVTLFPPSSEELQANKATLVCLISDFYPGAVTVAWKADSSPVKAGVETTTPSKQSNNKYAASSYLSLTPEQWKSHRSYSCQVTHEGSTVEKTVAPTECS
# B2: BsAb-3 (bispecific antibody, human IgG1, lambda)
# chain: QVQLVESGGGVVQPGGSLRLSCAASGFVLRVNTVSWYRQAPGKQRELVALITSESNEYYDDSVKGRFTISRDNAKNTIYLHMNSLKPEDTGVYFCNFITTWGQGTQVTVSSDKTHTCPPCPAPESTRGPSVFLFPPKPKDTLMISRTPEVTCVVVDVSHEDPEVKFNWYVDGVEVHNAKTKPREEQYNSTYRVVSVLTVLHQDWLNGKEYKCKVSNKALPAPIEKTISKAKGQPREPQVCTLPPSRDELTKNQVSLSCAVKGFYPSDIAVEWESNGQPENNYKTTPPVLDSDGSFFLVSKLTVDKSRWQQGNVFSCSVMHEALHNHYTQKSLSLSPGK
# heavy: EVQLVESGGGLVQPGRSLRLSCAASGFTFNTYAMNWVRQAPGKGLEWVARIRSKYNNYATYYADSVKDRFTISRDDSKSIAYLQMNSLKTEDTAVYYCVRHGNFGNSYVSWFAYWGQGTLVTVSSASTKGPSVFPLAPSSKSTSGGTAALGCLVKDYFPEPVTVSWNSGALTSGVHTFPAVLQSSGLYSLSSVVTVPSSSLGTQTYICNVNHKPSNTKVDKKVEPKSCDKTHTCPPCPAPESTRGPSVFLFPPKPKDTLMISRTPEVTCVVVDVSHEDPEVKFNWYVDGVEVHNAKTKPREEQYNSTYRVVSVLTVLHQDWLNGKEYKCKVSNKALPAPIEKTISKAKGQPREPQVYTLPPCRDELTKNQVSLWCLVKGFYPSDIAVEWESNGQPENNYKTTPPVLDSDGSFFLYSKLTVDKSRWQQGNVFSCSVMHEALHNHYTQKSLSLSPGK
# light: B1 light
# notes: also called BsAb-03
# B3: BsAb-11 (bispecific antibody, human IgG1, lambda)
# chain: B2 chain
# heavy: QVQLVESGGGVVQPGGSLRLSCAASGFVLRVNTVSWYRQAPGKQRELVALITSESNEYYDDSVKGRFTISRDNAKNTIYLHMNSLKPEDTGVYFCNFITTWGQGTQVTVSSGGGGSGGGGSGGGGSEVQLVESGGGLVQPGRSLRLSCAASGFTFNTYAMNWVRQAPGKGLEWVARIRSKYNNYATYYADSVKDRFTISRDDSKSIAYLQMNSLKTEDTAVYYCVRHGNFGNSYVSWFAYWGQGTLVTVSSASTKGPSVFPLAPSSKSTSGGTAALGCLVKDYFPEPVTVSWNSGALTSGVHTFPAVLQSSGLYSLSSVVTVPSSSLGTQTYICNVNHKPSNTKVDKKVEPKSCDKTHTCPPCPAPESTRGPSVFLFPPKPKDTLMISRTPEVTCVVVDVSHEDPEVKFNWYVDGVEVHNAKTKPREEQYNSTYRVVSVLTVLHQDWLNGKEYKCKVSNKALPAPIEKTISKAKGQPREPQVYTLPPCRDELTKNQVSLWCLVKGFYPSDIAVEWESNGQPENNYKTTPPVLDSDGSFFLYSKLTVDKSRWQQGNVFSCSVMHEALHNHYTQKSLSLSPGK
# light: B1 light
# B4: BsAb-16 (bispecific antibody, human IgG1, lambda)
# chain: EVQLVESGGGLVQPGGSLRLSCAASGRSFSSFQMGWFRQAPGKEREFVAASGWSGGPTYYWDSVIGRFTISTDNSKNTLYLQMNSLRAEDTAVYYCYEDRVLSGRHVRYWGQGTLVTVSSGGGGSGGGGSGGGGSEVQLVESGGGLVQPGGSLRLSCAASGRSFSSFQMGWFRQAPGKEREFVAASGWSGGPTYYWDSVIGRFTISTDNSKNTLYLQMNSLRAEDTAVYYCYEDRVLSGRHVRYWGQGTLVTVSSDKTHTCPPCPAPESTRGPSVFLFPPKPKDTLMISRTPEVTCVVVDVSHEDPEVKFNWYVDGVEVHNAKTKPREEQYNSTYRVVSVLTVLHQDWLNGKEYKCKVSNKALPAPIEKTISKAKGQPREPQVCTLPPSRDELTKNQVSLSCAVKGFYPSDIAVEWESNGQPENNYKTTPPVLDSDGSFFLVSKLTVDKSRWQQGNVFSCSVMHEALHNHYTQKSLSLSPGK
# heavy: B2 heavy
# light: B1 light
# B5: BsAb-7 (bispecific antibody, human IgG1, lambda)
# chain: QVQLVESGGGVVQPGGSLRLSCAASGFVLRVNTVSWYRQAPGKQRELVALITSESNEYYDDSVKGRFTISRDNAKNTIYLHMNSLKPEDTGVYFCNFITTWGQGTQVTVSSGGGGSGGGGSGGGGSQVQLVESGGGVVQPGGSLRLSCAASGFVLRVNTVSWYRQAPGKQRELVALITSESNEYYDDSVKGRFTISRDNAKNTIYLHMNSLKPEDTGVYFCNFITTWGQGTQVTVSSDKTHTCPPCPAPESTRGPSVFLFPPKPKDTLMISRTPEVTCVVVDVSHEDPEVKFNWYVDGVEVHNAKTKPREEQYNSTYRVVSVLTVLHQDWLNGKEYKCKVSNKALPAPIEKTISKAKGQPREPQVCTLPPSRDELTKNQVSLSCAVKGFYPSDIAVEWESNGQPENNYKTTPPVLDSDGSFFLVSKLTVDKSRWQQGNVFSCSVMHEALHNHYTQKSLSLSPGK
# heavy: B2 heavy
# light: B1 light
# notes: also called BsAb-07
# B6: BsAb-6 (bispecific antibody, human IgG1, lambda)
# chain: EVQLVESGGGLVQPGGSLRLSCAASYFISRFYAVGWYRQAPGKQRELVARISSGGWTYYADSVKGRFTISIDNSKNTLYLQMNSLRAEDTAVYYCNARNLWGQGTLVTVSSGGGGSGGGGSGGGGSEVQLVESGGGLVQPGGSLRLSCAASYFISRFYAVGWYRQAPGKQRELVARISSGGWTYYADSVKGRFTISIDNSKNTLYLQMNSLRAEDTAVYYCNARNLWGQGTLVTVSSDKTHTCPPCPAPESTRGPSVFLFPPKPKDTLMISRTPEVTCVVVDVSHEDPEVKFNWYVDGVEVHNAKTKPREEQYNSTYRVVSVLTVLHQDWLNGKEYKCKVSNKALPAPIEKTISKAKGQPREPQVCTLPPSRDELTKNQVSLSCAVKGFYPSDIAVEWESNGQPENNYKTTPPVLDSDGSFFLVSKLTVDKSRWQQGNVFSCSVMHEALHNHYTQKSLSLSPGK
# heavy: B2 heavy
# light: B1 light
# notes: also called BsAb-06
# B7: BsAb-10 (bispecific antibody, human IgG1, lambda)
# chain: EVQLVESGGGLVQPGGSLRLSCAASYFISRFYAVGWYRQAPGKQRELVARISSGGWTYYADSVKGRFTISIDNSKNTLYLQMNSLRAEDTAVYYCNARNLWGQGTLVTVSSDKTHTCPPCPAPESTRGPSVFLFPPKPKDTLMISRTPEVTCVVVDVSHEDPEVKFNWYVDGVEVHNAKTKPREEQYNSTYRVVSVLTVLHQDWLNGKEYKCKVSNKALPAPIEKTISKAKGQPREPQVCTLPPSRDELTKNQVSLSCAVKGFYPSDIAVEWESNGQPENNYKTTPPVLDSDGSFFLVSKLTVDKSRWQQGNVFSCSVMHEALHNHYTQKSLSLSPGK
# heavy: EVQLVESGGGLVQPGGSLRLSCAASYFISRFYAVGWYRQAPGKQRELVARISSGGWTYYADSVKGRFTISIDNSKNTLYLQMNSLRAEDTAVYYCNARNLWGQGTLVTVSSGGGGSGGGGSGGGGSEVQLVESGGGLVQPGRSLRLSCAASGFTFNTYAMNWVRQAPGKGLEWVARIRSKYNNYATYYADSVKDRFTISRDDSKSIAYLQMNSLKTEDTAVYYCVRHGNFGNSYVSWFAYWGQGTLVTVSSASTKGPSVFPLAPSSKSTSGGTAALGCLVKDYFPEPVTVSWNSGALTSGVHTFPAVLQSSGLYSLSSVVTVPSSSLGTQTYICNVNHKPSNTKVDKKVEPKSCDKTHTCPPCPAPESTRGPSVFLFPPKPKDTLMISRTPEVTCVVVDVSHEDPEVKFNWYVDGVEVHNAKTKPREEQYNSTYRVVSVLTVLHQDWLNGKEYKCKVSNKALPAPIEKTISKAKGQPREPQVYTLPPCRDELTKNQVSLWCLVKGFYPSDIAVEWESNGQPENNYKTTPPVLDSDGSFFLYSKLTVDKSRWQQGNVFSCSVMHEALHNHYTQKSLSLSPGK
# light: B1 light
# B8: BsAb-2 (bispecific antibody, human IgG1, lambda)
# chain: B7 chain
# heavy: B2 heavy
# light: B1 light
# notes: also called BsAb-02
# Molecular target: T1, human CD3 (on Jurkat cells) (human, UniProt P07766 23-207; P09693 23-182; P04234 22-171)
# T1 construct: whole, on cells
# Test: flow cytometry on Jurkat cells expressing human CD3
# T1 sequence (P07766 23-207, chain 1 of 3): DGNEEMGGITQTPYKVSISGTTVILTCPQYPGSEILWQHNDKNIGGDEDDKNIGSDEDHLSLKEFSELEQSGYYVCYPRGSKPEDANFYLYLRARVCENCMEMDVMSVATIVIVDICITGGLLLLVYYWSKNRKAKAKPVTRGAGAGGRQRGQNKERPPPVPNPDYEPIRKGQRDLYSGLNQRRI
# T1 sequence (P09693 23-182, chain 2 of 3): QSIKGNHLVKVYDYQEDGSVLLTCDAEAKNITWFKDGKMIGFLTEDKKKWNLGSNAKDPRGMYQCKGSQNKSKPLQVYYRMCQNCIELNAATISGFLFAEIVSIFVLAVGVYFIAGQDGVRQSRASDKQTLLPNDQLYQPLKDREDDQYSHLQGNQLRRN
# T1 sequence (P04234 22-171, chain 3 of 3): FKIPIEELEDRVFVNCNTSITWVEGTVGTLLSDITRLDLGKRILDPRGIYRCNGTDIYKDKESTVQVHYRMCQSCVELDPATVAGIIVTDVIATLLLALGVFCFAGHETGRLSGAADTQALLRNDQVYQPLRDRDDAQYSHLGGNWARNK
row,Binder,EC50 [nM]
1,B1,4.02
2,B2,6.66
3,B3,4
4,B4,0.469
5,B5,0.526
6,B6,1.18
7,B7,2.84
8,B8,0.329
